As usually defined, the Kd is the concentration at which binding is half-saturated.

The values that follow come from paper PMC9860126, “Mechanistic insights into the nickel-dependent allosteric response of the Helicobacter pylori NikR transcription factor”.

One data set has as its target HpNikR K31A (Helicobacter pylori G27, UniProt A1YSQ9 1-148, K31A). The experiment in a line: fluorescence anisotropy; Ni(II)-bound; FA: 5 nM DNA, 20 mM Tris pH 7.6, 100 mM NaCl, 3 mM MgSO4, temperature not stated (Ni loading 1.2 eq NiSO4 per monomer at RT). EMSA: 20 mM Tris pH 7.5, 100 mM KCl, 3 mM MgCl2, 0.1% IGEPAL, 5% glycerol, 0.1 mg/ml herring sperm DNA, RT; gel with 800 uM NiSO4 at 4 C. The conditions noted are these: protein: recombinant; tags: none stated; chain copies: 4; label: fluorescein on internal thymine (T14 of strand 1); blunt. In general terms: Fluorescence polarisation rises when a labelled molecule tumbles more slowly, as on binding a larger partner.

A further data set has as its target HpNikR K140A (Helicobacter pylori G27, UniProt A1YSQ9 1-148, K140A). The description is as above. The settings on record: protein: recombinant; tags: none stated; chain copies: 4; label: fluorescein on internal thymine (T14 of strand 1); blunt.
The target in the next data set is HpNikR E62A (Helicobacter pylori G27, UniProt A1YSQ9 1-148, E62A). The description is as above. The settings on record: protein: recombinant; tags: none stated; chain copies: 4; label: fluorescein on internal thymine (T14 of strand 1); blunt.
A further data set concerns the target HpNikR N32A (Helicobacter pylori G27, UniProt A1YSQ9 1-148, N32A). The description is as above. The settings on record: protein: recombinant; tags: none stated; chain copies: 4; label: fluorescein on internal thymine (T14 of strand 1); blunt.
The target in another data set is HpNikR K64A (Helicobacter pylori G27, UniProt A1YSQ9 1-148, K64A). Described as above. The settings on record: protein: recombinant; tags: none stated; chain copies: 4; label: fluorescein on internal thymine (T14 of strand 1); blunt.
For another data set, the target named is HpNikR E56A (Helicobacter pylori G27, UniProt A1YSQ9 1-148, E56A). Described as above. The settings on record: protein: recombinant; tags: none stated; chain copies: 4; label: fluorescein on internal thymine (T14 of strand 1); blunt.
The target of data set [1] is T1, HpNikR Q81A (Helicobacter pylori G27, UniProt A1YSQ9 1-148, Q81A). The description is as above. The conditions noted are these: protein: recombinant; tags: none stated; chain copies: 4; label: fluorescein on internal thymine (T14 of strand 1); blunt.
For the next data set, the target named is HpNikR T92A (Helicobacter pylori G27, UniProt A1YSQ9 1-148, T92A). The data set is described as above. The conditions noted are these: protein: recombinant; tags: none stated; chain copies: 4; label: fluorescein on internal thymine (T14 of strand 1); blunt.
In a further data set the target is T2, HpNikR WT (Helicobacter pylori G27 (from vector …, UniProt A1YSQ9 1-148)).
T2 sequence: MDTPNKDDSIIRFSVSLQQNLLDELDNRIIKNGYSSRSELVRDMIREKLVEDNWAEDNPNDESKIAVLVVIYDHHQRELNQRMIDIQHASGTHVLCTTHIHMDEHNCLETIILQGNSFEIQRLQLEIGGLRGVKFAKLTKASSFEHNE
The description is as above. The conditions noted are these: protein: recombinant; tags: none stated (untagged purification); chain copies: 4; label: fluorescein on internal thymine (T14 of strand 1); blunt.

The target of data set [2] is T1, HpNikR Q81A. Put plainly: fluorescence anisotropy; apo (no Ni); FA: 5 nM DNA, 20 mM Tris pH 7.6, 100 mM NaCl, 3 mM MgSO4, temperature not stated (Ni loading 1.2 eq NiSO4 per monomer at RT). EMSA: 20 mM Tris pH 7.5, 100 mM KCl, 3 mM MgCl2, 0.1% IGEPAL, 5% glycerol, 0.1 mg/ml herring sperm DNA, RT; gel with 800 uM NiSO4 at 4 C. The conditions noted are these: protein: recombinant; tags: none stated; chain copies: 4; label: fluorescein on internal thymine (T14 of strand 1); blunt.

B1: ureA promoter 32 bp (FA) (dsDNA)
DNA 1: ATATAACACTAATTCATTTTAAATAATAATTA
DNA 2: TAATTATTATTTAAAATGAATTAGTGTTATAT
Regarding B1, the Kd with HpNikR K31A worked out at 6.8 ± 1 nM; with HpNikR K140A, 63 ± 5.6 nM; in the data set with HpNikR E62A, 10.1 ± 1.1 nM; with HpNikR N32A, 4.8 ± 0.9 nM; in the data set with HpNikR K64A it was 22 ± 2.2 nM; in the data set with HpNikR E56A, 5.4 ± 0.1 nM. Further, the Kd was 6.5 ± 1 nM with HpNikR Q81A [1], 3.6 ± 0.2 nM with HpNikR T92A, 4.5 ± 0.6 nM with HpNikR WT and 2000 ± 500 nM with HpNikR Q81A [2].

B2: ureA-perf promoter 32 bp (dsDNA)
DNA 1: ATATATTATTAATTCATTTTAAATAATAATTA
DNA 2: TAATTATTATTTAAAATGAATTAATAATATAT
Consider B2, for which the Kd in the data set with HpNikR K31A turned out to be 4.1 ± 1 nM; with HpNikR E62A, 2.9 ± 0.9 nM; with HpNikR N32A it was 1.3 ± 0.4 nM; with HpNikR E56A it was 5.9 ± 0.8 nM; with HpNikR Q81A [1], 3.9 ± 1.4 nM; with HpNikR T92A it was 2.6 ± 0.5 nM. Also, the dissociation constant (Kd) with HpNikR WT was 4.7 ± 0.4 nM; with HpNikR Q81A [2], 1600 ± 600 nM.
